Measurements taken from publication PMC11900225, “Deletions in Glial Fibrillary Acidic Protein Leading to Alterations in Intermediate Filament Assembly and Network Formation” (International Journal of Molecular Sciences, 2025).

B1: CΔ207 GFAP (domain or fragment, human, UniProt P14136 1-225, looked up)
chain: MERRRITSAARRSYVSSGEMMVGGLAPGRRLGPGTRLSLARMPPPLPTRVDFSLAGALNAGFKETRASERAEMMELNDRFASYIEKVRFLEQQNKALAAELNQLRAKEPTKLADVYQAELRELRLRLDQLTANSARLEVERDNLAQDLATVRQKLQDETNLRLEAENNLAAYRQEADEATLARLDLERKIESLEEEIRFLRKIHEEEVRELQEQLARQQVHVELD
notes: Human GFAPα, the first 225 amino acids; N-terminal fragment produced by caspase-6 cleavage at 222VELD225; Expressed from pET23b; no tag named
B2: ΔEx5 GFAP (natural protein)
chain: not shown
notes: Human GFAPα with an in-frame deletion of 42 residues, amino acids 261-302 (skipping of exon 5, an Alexander disease splice site mutation); Expressed from pET23b; no tag named; also called ΔEx5 mutant; ΔEx5 deletion mutant
B3: CΔ121 GFAP (domain or fragment, human, UniProt P14136 1-311, looked up)
chain: MERRRITSAARRSYVSSGEMMVGGLAPGRRLGPGTRLSLARMPPPLPTRVDFSLAGALNAGFKETRASERAEMMELNDRFASYIEKVRFLEQQNKALAAELNQLRAKEPTKLADVYQAELRELRLRLDQLTANSARLEVERDNLAQDLATVRQKLQDETNLRLEAENNLAAYRQEADEATLARLDLERKIESLEEEIRFLRKIHEEEVRELQEQLARQQVHVELDVAKPDLTAALKEIRTQYEAMASSNMHEAEEWYRSKFADLTDAAARNAELLRQAKHEANDYRRQLQSLTCDLESLRGTNESLERQMR
notes: Human GFAPα, the initial 311 residues; truncation caused by a nonsense Alexander disease mutation; Expressed from pET23b; no tag named
B4: ΔEx4 GFAP (natural protein)
chain: not shown
notes: Expressed from pET23b; no tag named; also called ΔEx4 mutant
B5: CΔ92 GFAP (domain or fragment, human, UniProt P14136 1-340, looked up)
chain: MERRRITSAARRSYVSSGEMMVGGLAPGRRLGPGTRLSLARMPPPLPTRVDFSLAGALNAGFKETRASERAEMMELNDRFASYIEKVRFLEQQNKALAAELNQLRAKEPTKLADVYQAELRELRLRLDQLTANSARLEVERDNLAQDLATVRQKLQDETNLRLEAENNLAAYRQEADEATLARLDLERKIESLEEEIRFLRKIHEEEVRELQEQLARQQVHVELDVAKPDLTAALKEIRTQYEAMASSNMHEAEEWYRSKFADLTDAAARNAELLRQAKHEANDYRRQLQSLTCDLESLRGTNESLERQMREQEERHVREAASYQEALARLEEEGQSLKD
notes: Human GFAPα with 92 residues deleted from the C-terminus (CΔX is the number of residues deleted from the C-terminus); fragment potentially generated by calpain cleavage at 337SLKD340; Expressed from pET23b; no tag named

Legend:
[1] = biological target: the molecule itself; test: low-speed sedimentation assay of assembled filaments; assembly mixture centrifuged at 1000 x g for 5 min at room temperature; supernatant and pellet by SDS-PAGE and Coomassie; monitors filament aggregation
[2] = biological target: T1, Glial fibrillary acidic protein (GFAP), full-length wild type, human GFAPα (human, UniProt P14136-1 1-432); test: high-speed sedimentation assay of assembled filaments; assembly mixture layered on a 0.85 M sucrose cushion in assembly buffer, 80,000 x g, 20 min, 20 °C; supernatant and pellet by SDS-PAGE and Coomassie; efficiency is the percent of total protein in the pellet; conditions: both partners purified
T1 construct: Glial fibrillary acidic protein, major isoform GFAPα, human, full length, cDNA in pET23b; Expressed from pET23b; also called WT GFAP; WT

[3] = biological target: T1, Glial fibrillary acidic protein (GFAP), …; test: in vitro filament assembly with negative-stain transmission electron microscopy; 0.2 mg/mL GFAP dialysed stepwise out of 6 M urea into low-salt buffer, then into assembly buffer (10 mM Tris-HCl, 50 mM NaCl, 1 mM DTT, pH 7) at 34–36 °C for 12–16 h; stained with 1% uranyl acetate; mutants alone or coassembled with WT at stated proportions; conditions: both partners purified
[4] = biological target: the molecule itself; test: high-speed sedimentation assay of assembled filaments; assembly mixture layered on a 0.85 M sucrose cushion in assembly buffer, 80,000 x g, 20 min, 20 °C; supernatant and pellet by SDS-PAGE and Coomassie; efficiency is the percent of total protein in the pellet

Binder | percent in the pellet (low-speed sedimentation) [1] [%] | binding result [2] | binding result [3] | binding result [4]
B1 | 91 | – | – | –
B2 | 69 | binds | – | –
B3 | 68 | – | – | –
B4 | – | – | binds | binds
B5 | – | – | – | binds
